In patent US20140127127:

System: L-pyroglutamyl-L-prolyl-L-arginine-p-nitroaniline hydrochloride

Chain of recombinant human hepsin extracellular region (Ser46 to Leu417), produced in P. pastoris (chain, as listed by the source): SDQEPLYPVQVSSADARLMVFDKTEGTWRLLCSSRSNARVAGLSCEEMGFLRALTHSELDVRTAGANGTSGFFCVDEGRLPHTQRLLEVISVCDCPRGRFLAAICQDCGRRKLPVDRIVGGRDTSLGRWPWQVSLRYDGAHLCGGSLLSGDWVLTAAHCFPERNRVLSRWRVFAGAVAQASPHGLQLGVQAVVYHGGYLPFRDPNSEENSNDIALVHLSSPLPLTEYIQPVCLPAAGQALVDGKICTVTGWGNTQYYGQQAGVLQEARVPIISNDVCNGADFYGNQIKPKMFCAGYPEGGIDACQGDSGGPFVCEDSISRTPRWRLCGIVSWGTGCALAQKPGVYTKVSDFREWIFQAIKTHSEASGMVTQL

Substance: recombinant human hepsin extracellular region (Ser46 to Leu417), produced in P. pastoris
- Km: 0.4 nM hepsin, Km=170 µM
- enzymatic cleavage of chromogenic substrate: The purified hepsin was enzymatically active (FIG. 1B), cleaving the chromogenic serine protease substrate pyroGlu-Pro-Arg-pNA
